This is an account of results in patent US20230303994.

B1: trypsin variant SEQ ID NO: 121 (protein)
chain: IVGGYTCAANSIPYQVSLNSGSHRCGGSLINSQWVVSAAHCYKSRIQVRLGEHNIDVLEGNEQFINAAKIITHPNFNGNTLDNDIMLIKLSSPATLNSRVATVSLPRSCAAAGTECLISGWGNTKSSGSSYPSLLQCLKAPVLSDSSCKSSYPGQITGNMICVGFLEGGIDACQGDSGGPVVCNGQLQGIVSSGYGCAQKNKPGVYTKVCNYVNWIQQTIAAN
B2: trypsin variant SEQ ID NO: 127 (protein)
chain: IVGGYTCAANSIPYQVSLNSGSHRCGGSLINSQWVVSAAHCYKYRIQVRLGEHNIDVLEGNEQFINAAKIITHPNFNGNTLDNDIMLIKLSSPATLNSRVATVSLPRSCAAAGTECLISGWGNTKSSGSSYPSLLQCLKAPVLSDSSCKSSYPGQITGNMICVGFLEGGKDACQGDSGGPVVCNGQLQGIVSSGYGCAQKNKPGVYTKVCNYVNWIQQTIAAN
B3: trypsin variant SEQ ID NO: 130 (protein)
chain: IVGGYTCAANSIPYQVSLNSGSHRCGGSLINSQWVVSAAHCYKSRIQVRLGEHNIDVLEGNEQFINAAKIITHPNFNGNTLDNDIMLIKLSSPATLNSRVATVSLPRSCAAAGTECLISGWGNTKSSGSSYPSLLQCLKAPVLSDSSCKSSYPGQITGNMICVGFLEGGKDACQGDSGGPVVCNGQLQGIVSCGYGCAQKNKPGVYTKVCNYVNWIQQTIAAN
B4: trypsin variant SEQ ID NO: 122 (protein)
chain: IVGGYTCAANSIPYQVSLNSGSHRCGGSLINSQWVVSAAHCYKSRIQVRLGEHNIDVLEGNEQFINAAKIITHPNFNGNTLDNDIMLIKLSSPATLNSRVATVSLPRSCAAAGTECLISGWGNTKSSGSSYPSLLQCLKAPVLSDSSCKSSYPGQITGNMICVGFLEGGFDACQGDSGGPVVCNGQLQGIVSSGYGCAQKNKPGVYTKVCNYVNWIQQTIAAN
B5: trypsin variant SEQ ID NO: 124 (protein)
chain: IVGGYTCAANSIPYQVSLNSGSHRCGGSLINSQWVVSAAHCYKSRIQVRLGEHNIDVLEGNEQFINAAKIITHPNFNGNTLDNDIMLIKLSSPATLNSRVATVSLPRSCAAAGTECLISGWGNTKSSGSSKPSLLQCLKAPVLSDSSCKSSYPGQITGNMICVGFLEGGKDACQGDSGGPVVCNGQLQGIVSSGYGCAQKNKPGVYTKVCNYVNWIQQTIAAN
B6: trypsin variant SEQ ID NO: 16 (protein)
chain: IVGGYTCAANSIPYQVSLNSGSHRCGGSLINSQWVVSAAHCYKSRIQVRLGEHNIDVLEGNEQFINAAKIITHPNFNGNTLDNDIMLIKLSSPATLNSRVATVSLPRSCAAAGTECLISGWGNTGSSGSSYPSLLQCLKAPVLSDSSCKSSYPGQITGNMICVGFLEGGKDACQGDSGGPVVCNGQLQGIVSSGYGCAQKNKPGVYTKVCNYVNWIQQTIAAN
B7: trypsin variant SEQ ID NO: 123 (protein)
chain: IVGGYTCAANSIPYQVSLNSGSHGCGGSLINSQWVVSAAHCYKSRIQVRLGEHNIDVLEGNEQFINAAKIITHPNFNGNTLDNDIMLIKLSSPATLNSRVATVSLPRSCAAAGTECLISGWGNTKSSGSSYPSLLQCLKAPVLSDSSCKSSYPGQITGNMICVGFLEGGKDACQGDSGGPVVCNGQLQGIVSSGYGCAQKNKPGVYTKVCNYVNWIQQTIAAN
B8: trypsin variant SEQ ID NO: 128 (protein)
chain: IVGGYTCAANSIPYQVSLNSGSHRCGGSLINSQWVVSAAHCYKSRIQVRLGEHNIDVLEGNEQFINAAKIITHPNFNGNTLDNDIMLIKLSSPATLNSRVATVSLPRSCAAAGTECLISGWGNTKSSGSSPPSLLQCLKAPVLSDSSCKSSYPGQITGNMICVGFLEGGKDACQGDSGGPVVCNGQLQGIVSSGYGCAQKNKPGVYTKVCNYVNWIQQTIAAN
B9: trypsin variant SEQ ID NO: 20 (protein)
chain: IVGGYTCAANSIPYQVSLNSGSHRCGGSLINSQWVVSAAHCYKSRIQVRLGEHNIDVLEGNEQFINAAKIITHPNFNGNTLDNDIMLIKLSSPATLNSRVATVSLPRSCAAAGTECLISGWGNTESSGSSYPSLLQCLKAPVLSDSSCKSSYPGQITGNMICVGFLEGGKDACQGDSGGPVVCNGQLQGIVSSGYGCAQKNKPGVYTKVCNYVNWIQQTIAAN
B10: trypsin variant SEQ ID NO: 15 (protein)
chain: IVGGYTCAANSIPYQVSLNSGSHRCGGSLINSQWVVSAAHCYKSRIQVRLGEHNIDVLEGNEQFINAAKIITHPNFNGNTLDNDIMLIKLSSPATLNSRVATVSLPRSCAAAGTECLISGWGNTASSGSSYPSLLQCLKAPVLSDSSCKSSYPGQITGNMICVGFLEGGKDACQGDSGGPVVCNGQLQGIVSSGYGCAQKNKPGVYTKVCNYVNWIQQTIAAN
B11: trypsin variant SEQ ID NO: 17 (protein)
chain: IVGGYTCAANSIPYQVSLNSGSHRCGGSLINSQWVVSAAHCYKSRIQVRLGEHNIDVLEGNEQFINAAKIITHPNFNGNTLDNDIMLIKLSSPATLNSRVATVSLPRSCAAAGTECLISGWGNTYSSGSSYPSLLQCLKAPVLSDSSCKSSYPGQITGNMICVGFLEGGKDACQGDSGGPVVCNGQLQGIVSSGYGCAQKNKPGVYTKVCNYVNWIQQTIAAN
B12: trypsin variant SEQ ID NO: 129 (protein)
chain: IVGGYTCAANSIPYQVSLNSGSHRCGGSLINSQWVVSAAHCYKSRIQVRLGEHNIDVLEGNEQFINAAKIITHPNFNGNTLDNDIMLIKLSSPATLNSRVATVSLPRSCAAAGTECLISGWGNTKSSGSSYPSLLQCLKAPVLSDSSCKSSYPGQITGNMICVGFLEGGKDACQGDSGGPVVCNGQLQGIVSNGYGCAQKNKPGVYTKVCNYVNWIQQTIAAN
B13: trypsin variant SEQ ID NO: 126 (protein)
chain: IVGGYTCAANSIPYQVSLNSGSHECGGSLINSQWVVSAAHCYKSRIQVRLGEHNIDVLEGNEQFINAAKIITHPNFNGNTLDNDIMLIKLSSPATLNSRVATVSLPRSCAAAGTECLISGWGNTKSSGSSYPSLLQCLKAPVLSDSSCKSSYPGQITGNMICVGFLEGGKDACQGDSGGPVVCNGQLQGIVSSGYGCAQKNKPGVYTKVCNYVNWIQQTIAAN
B14: trypsin variant SEQ ID NO: 125 (protein)
chain: IVGGYTCAANSIPYQVSLNSGSHDCGGSLINSQWVVSAAHCYKSRIQVRLGEHNIDVLEGNEQFINAAKIITHPNFNGNTLDNDIMLIKLSSPATLNSRVATVSLPRSCAAAGTECLISGWGNTKSSGSSYPSLLQCLKAPVLSDSSCKSSYPGQITGNMICVGFLEGGKDACQGDSGGPVVCNGQLQGIVSSGYGCAQKNKPGVYTKVCNYVNWIQQTIAAN

The target in this series is pre-pro-human insulin.
Consider B1, for which the “Activity PPI cleavage” value is “yes” and the Selectivity is 4.6%.

On to B2, for which the “Activity PPI cleavage” value is recorded as “yes” and the Selectivity is recorded as 20.5%.

In the case of B3, the “Activity PPI cleavage” value was “yes” and the Selectivity stood at 33.8%.

Regarding B4, the “Activity PPI cleavage” value is listed as “yes” and the Selectivity was found to be 59.4%.

As for B5, the “Activity PPI cleavage” value is on record as “yes” and the Selectivity was determined as 27.6%.

On to B6, for which the “Activity PPI cleavage” value was “yes” and the Selectivity is listed as greater than 90%.

B7: the “Activity PPI cleavage” value was “yes” and the Selectivity amounted to 60.7%.

For B8, the “Activity PPI cleavage” value is “yes” and the Selectivity was 57.1%.

On to B9, for which the “Activity PPI cleavage” value was “yes” and the Selectivity is recorded as greater than 90%.

With B10, the “Activity PPI cleavage” value is “yes” and the Selectivity is greater than 90%.

Consider B11, for which the “Activity PPI cleavage” value is given as “yes” and the Selectivity is recorded as greater than 80%.

With B12, the “Activity PPI cleavage” value is “yes” and the Selectivity came out at 44.8%.

As for B13, the “Activity PPI cleavage” value is listed as “yes” and the Selectivity is reported as 7.2%.

Turning to B14, the “Activity PPI cleavage” value was “yes” and the Selectivity is reported as 12.2%.
